Reference: patent publication US12617818

Biological target: Rabbit skeletal myosin (rabbit)
Assay: cell-based or functional assay

Chain of Rabbit skeletal myosin (Q28641 whole entry): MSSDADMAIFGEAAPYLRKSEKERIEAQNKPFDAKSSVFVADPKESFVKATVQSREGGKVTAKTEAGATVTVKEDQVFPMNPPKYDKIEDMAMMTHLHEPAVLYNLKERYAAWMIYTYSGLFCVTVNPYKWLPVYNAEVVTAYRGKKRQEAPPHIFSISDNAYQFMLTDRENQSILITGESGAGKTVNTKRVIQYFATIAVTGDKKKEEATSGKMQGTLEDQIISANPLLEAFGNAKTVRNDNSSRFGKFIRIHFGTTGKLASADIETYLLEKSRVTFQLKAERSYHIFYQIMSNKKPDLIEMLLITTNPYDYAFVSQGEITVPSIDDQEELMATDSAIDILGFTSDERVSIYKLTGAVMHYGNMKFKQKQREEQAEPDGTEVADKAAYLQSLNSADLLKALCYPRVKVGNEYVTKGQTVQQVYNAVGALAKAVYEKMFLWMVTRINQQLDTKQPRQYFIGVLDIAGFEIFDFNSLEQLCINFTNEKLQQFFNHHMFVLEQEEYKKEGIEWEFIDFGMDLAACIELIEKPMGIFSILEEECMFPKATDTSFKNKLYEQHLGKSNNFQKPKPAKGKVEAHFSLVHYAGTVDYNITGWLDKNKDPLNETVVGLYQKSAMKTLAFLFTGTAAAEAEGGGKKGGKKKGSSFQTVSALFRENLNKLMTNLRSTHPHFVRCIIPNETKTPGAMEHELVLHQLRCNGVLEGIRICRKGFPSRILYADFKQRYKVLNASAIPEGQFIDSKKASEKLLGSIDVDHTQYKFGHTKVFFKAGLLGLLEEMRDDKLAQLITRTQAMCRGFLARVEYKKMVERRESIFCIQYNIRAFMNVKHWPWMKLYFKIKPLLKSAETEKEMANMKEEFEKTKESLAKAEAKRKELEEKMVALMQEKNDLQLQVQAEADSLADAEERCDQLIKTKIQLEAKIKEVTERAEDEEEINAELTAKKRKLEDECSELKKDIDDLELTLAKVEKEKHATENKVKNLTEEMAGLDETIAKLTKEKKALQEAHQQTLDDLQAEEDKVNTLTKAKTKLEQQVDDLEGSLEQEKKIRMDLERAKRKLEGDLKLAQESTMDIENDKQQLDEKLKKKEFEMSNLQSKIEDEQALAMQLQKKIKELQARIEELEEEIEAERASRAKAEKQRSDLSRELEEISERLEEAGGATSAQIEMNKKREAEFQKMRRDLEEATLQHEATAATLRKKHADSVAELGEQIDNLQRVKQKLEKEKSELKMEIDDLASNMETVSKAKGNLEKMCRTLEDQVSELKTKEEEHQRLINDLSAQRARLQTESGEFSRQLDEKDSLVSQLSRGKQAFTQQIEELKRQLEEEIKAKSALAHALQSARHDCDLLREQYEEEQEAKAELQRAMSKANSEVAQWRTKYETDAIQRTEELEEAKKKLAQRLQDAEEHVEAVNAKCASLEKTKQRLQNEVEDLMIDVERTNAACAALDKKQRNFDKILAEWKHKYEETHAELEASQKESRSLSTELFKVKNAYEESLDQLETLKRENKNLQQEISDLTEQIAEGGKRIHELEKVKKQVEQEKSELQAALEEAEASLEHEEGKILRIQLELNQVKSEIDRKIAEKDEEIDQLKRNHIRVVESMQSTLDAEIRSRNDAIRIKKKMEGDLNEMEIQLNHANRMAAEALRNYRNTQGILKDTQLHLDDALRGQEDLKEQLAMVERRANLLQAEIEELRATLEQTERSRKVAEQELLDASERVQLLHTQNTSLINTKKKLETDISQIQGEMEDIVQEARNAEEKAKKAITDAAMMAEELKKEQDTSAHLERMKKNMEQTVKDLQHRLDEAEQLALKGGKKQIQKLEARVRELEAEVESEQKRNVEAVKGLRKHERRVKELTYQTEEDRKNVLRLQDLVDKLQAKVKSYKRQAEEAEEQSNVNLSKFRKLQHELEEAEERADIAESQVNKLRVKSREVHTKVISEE
Chain of Rabbit skeletal myosin (P02602 2-192, further chain): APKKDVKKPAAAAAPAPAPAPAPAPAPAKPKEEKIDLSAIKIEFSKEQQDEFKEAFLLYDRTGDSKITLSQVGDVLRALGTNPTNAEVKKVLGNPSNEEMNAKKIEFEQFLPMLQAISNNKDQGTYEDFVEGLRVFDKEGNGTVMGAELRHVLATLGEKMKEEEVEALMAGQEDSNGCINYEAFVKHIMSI
Chain of Rabbit skeletal myosin (P02608 2-170, further chain): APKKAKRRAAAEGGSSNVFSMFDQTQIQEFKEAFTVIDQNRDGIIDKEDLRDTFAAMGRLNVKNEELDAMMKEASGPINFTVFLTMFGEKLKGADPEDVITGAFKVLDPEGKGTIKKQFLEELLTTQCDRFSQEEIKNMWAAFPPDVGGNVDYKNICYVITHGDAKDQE

Substance | in vitro motility: reduction of the motility of actin thin filaments over skeletal myosin thick filaments treated with MyBPC [%] | GFS: force at an uncoiled length of 138 nm, control without antibody [pN] | GFS: force to uncoil the myosin molecule for a length of 50 nm, no stabilizer (control) [pN] | GFS: force to uncoil the myosin molecule for a length of 60 nm, tethered by S1 heads to G-actin (control) [pN] | GFS: force to uncoil the myosin molecule to a length of 100 nm, no destabilizer (control) [pN]
Myosin binding protein C (MyBPC), whole length skeletal | 22 | – | – | – | –
Rabbit skeletal myosin | – | 4.8 | 3.62 | 2.67 | 4.92
